{
  "source": "the nanobody polyreactivity screen of Harvey et al. (2022)",
  "data": [
    {"test": "yeast display, Sf9 membrane polyspecificity reagent, FACS + sequencing; frameworks hold sequencing errors", "summary_of_the_method": "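Galactose-induced (36–48 hours) yeast carrying a synthetic nanobody display library were exposed to 10% biotinylated, detergent-solubilized Sf9 membrane reagent at 4 °C for 1 hour. FACS followed streptavidin microbead enrichment, using low and high (top ~1%) gates for expression (anti-HA) and reagent binding (streptavidin). Colony PCR, MiSeq 2 × 250 sequencing and CDR-length filtering followed. Labels for polyreactivity reflect the gate of origin.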", "values": [
      {"sequence": "QVQLVESGGGLVQPGGSLRLSCAASGRIFYRYAMGWYRQAPGKERELVAAITARGGSTYYADSVKGRFTISRDNAKNTVYLQMNCLKPEDTAVYYCNKLLSNPYYPSYDYWGQGTQVTVSS", "polyreactivity (PSR sort gate)": "high polyreactivity"},
      {"sequence": "QVQLVESGGGLVQPGGSLRLSCAASGRSFFGYPMGWYRQAPGKERELVATISGSGASTYYADSVKGRFTISRDNAKNTVYLQMNSLKPEDTAVYYFAARYVTNRHSRYYYWGQGTQVTVSS", "polyreactivity (PSR sort gate)": "high polyreactivity"},
      {"sequence": "QVQLVESGGGLVQPGGSLRLSCAASGRTLHYNVMGWYRQAPGKEREFVAAITKSGGITYYADSVKGRFTISRDNAKNTVYLQMNSLKPEETAVDYCAADSPSWSWRISWSRYDYWGQGTQVTVSS", "polyreactivity (PSR sort gate)": "low polyreactivity"},
      {"sequence": "QVQLVESGGGLVQPGGSLRLSCAASGSIFAWYVMGWYRQAPGKERELVAGIDTSGGTTFYADSVKGRFTISRDNAKNTVYVQMNSLKPEDTAVYYCAADTWYRGPWEFDYWGQGTQVTVSS", "polyreactivity (PSR sort gate)": "low polyreactivity"},
      {"sequence": "QVQLVESGGGLVQPGGSLRLSCAASGYTSSPYAMGWYRQAPGKERELVAGISSGGSTYADSVKGRFTISRDNAKNTVYLQMISLKPEDTAVYYCADVWYYWTFEFDYWGQGTQVTVSS", "polyreactivity (PSR sort gate)": "high polyreactivity"},
      {"sequence": "QVQLVESGGGLVQPGGSLRLSCSASGRIFDNYAMGWYRQAPGKEREFVARITSSGGSTYYADSVKGRFTISRDYAKNTVYLQMYSLKPEDTAVYYCAKRGWSSYCRYDSWGQGTQVTVSS", "polyreactivity (PSR sort gate)": "high polyreactivity"},
      {"sequence": "QVQLVESGGGLVQPGGSLRLSSAASGITFPDYAMGWYRKAPGKERELVATITSSGGRTYYAHSVKGRFTISRDNAKNTVYLQMKSLKTEDTAVYYCAARRAYIRTLYYWGQGTQVTVSS", "polyreactivity (PSR sort gate)": "high polyreactivity"},
      {"sequence": "QVQLVESGGGLVQPGGSLRLSWAASGSIFVGYAMGWYRQAPGKERELVAAISTRGGSTYYADSVKGRFTISRDNAKNTVYLQINSLKPEDTAVYYCAADYLDSTYGYVFGWDDYWGQGTLVTVSS", "polyreactivity (PSR sort gate)": "low polyreactivity"},
      {"sequence": "QVQLVESGGGLVQPGGSLSLSCAASGFTFTYYAMGWYRQAPGKEMELVAAISWSGDSTYYADSVKGRFTISRDNAKNNVYLQMNSLKPEDSAVYYCGSEYSHTYDYWGQGTLVTVSS", "polyreactivity (PSR sort gate)": "low polyreactivity"},
      {"sequence": "QVQLVESGGGLVQPGGTLRLTCAGSGSILTGNAMRWYRQAPGKERELVAAITSGGSTYYADSVKGRFTISRDNAKNTVYLQMNSLNQADSAGYYCAASRWRPLERGTTWLHDYWGQGTQVTVSS", "polyreactivity (PSR sort gate)": "low polyreactivity"},
      {"sequence": "QVQLVESGGGLVQSGCSLRLSCAASGRIFDRYAMGSYRQAPGKERELVAAISSSGGSTYYADSVKGRFTISRDHAKNTVYLLMNSLKPEDTAVYYCATGTSRYRHQRDYWGQGTQVTVSS", "polyreactivity (PSR sort gate)": "high polyreactivity"},
      {"sequence": "QVQLVESGGGLVQSGGSLRLSCAASGFIFGGYAMGWYRQAPGTERELVASITWSGGRTFYADSVKGRFTISRDNAKNTVYLQMNSLKPEDTEVYYCAAGIYFTPYYYYPPNPFDYWGQGTQVTVSS", "polyreactivity (PSR sort gate)": "low polyreactivity"},
      {"sequence": "QVQLVESGGGLVQSGGSLRLSCAASGRIFGAYAMGWYRQAPGKDRELVAAITSAGSTHYADSVKGRFTISRDNAKNTVYLQMNSLKPEDTAVYYCAADGIASAYVLFDAYDFLYDYWGQGTQVTVSS", "polyreactivity (PSR sort gate)": "low polyreactivity"},
      {"sequence": "QVQLVESGGGLVQSGGSLRLSCAASGRIFRAYAMGWYIQAPGQERELVADITSGSGSTYYADSVKGRFTISRDYANNTVYLHMNSLKTEDTAVYYCAAYVLIRVWEYYYWGQGTQVNVSS", "polyreactivity (PSR sort gate)": "low polyreactivity"},
      {"sequence": "QVQLVESGGGLVQSGGSLRLSCAASGRIFRFYTMGWYRQAPGKERELVAAITQRGGRTYYADSVKGRFTISRDNAKNTVYLQMNSLKPEDTAVYYCAATTTVAEYDYWGQGTQVTVSS", "polyreactivity (PSR sort gate)": "high polyreactivity"},
      {"sequence": "QVQLVESGGGLVQSGGSLRLSCAASGRIFTHYAMGWYRQAPGKERELVAALSRSGGSTYYADSVKGRFTISRDNAKNTVYLQLNSLIPEDTADYYCDADGGRYFYRGTYREMNYWAQGTQVTVSS", "polyreactivity (PSR sort gate)": "high polyreactivity"},
      {"sequence": "QVQLVESGGGLVQSGGSLRLSCAASGRTFFKYSMGWYRQAPGKEREMVATITSSGGITYADSVKGRFTISRDNAKNSVYLQMNSLKPEDTAVYYCNARVWVTHYSELNYWGQGTQVTVSS", "polyreactivity (PSR sort gate)": "low polyreactivity"},
      {"sequence": "QVQLVESGGGLVQSGGSLRLSCAASGRTFGYNAMGWYRQAPGKERELVAAISRSGDSTYYADSVKGRFTISRDNAKNTVYLQMNSLNPEVTAVFYCATRYVTTGYDYWGQGTQVTVSS", "polyreactivity (PSR sort gate)": "low polyreactivity"},
      {"sequence": "QVQLVESGGGLVQSGGSLRLSCAASGRTFKSYAMGWYRQAPGKERELVAAITWSGGSTYYADSVKGRFTISRDNAKITVYFQMNSLKPEDTAVYYCAADSVYYYWYGYDYWGQGTQVTVSS", "polyreactivity (PSR sort gate)": "low polyreactivity"},
      {"sequence": "QVQLVESGGGLVQSGGSLRLSCAASGRTFYNNAMGWYRQAPGKERELVATINNRGGTTYYADSVKGRFTISRDNAKNTVYLQMNSLKPEDTAVYYCANSAQRYSYRYYYWGQGTQVTVSS", "polyreactivity (PSR sort gate)": "high polyreactivity"},
      {"sequence": "QVQLVESGGGLVQSGGSLRLSCAASGSIFDFYAMGWHRQAPGKERELVATITASGGSTYYADSVKGRFTISRDNAKITVYLQMNSLKPVDTAVYYCNADSVYWGQGTQVTVSS", "polyreactivity (PSR sort gate)": "low polyreactivity"},
      {"sequence": "QVQLVESGGGLVQSGGSLRLSCAASGSILKPYAMGWYRQAPGKERELVAAIRSSGGRTNYADSVKGRFTISRDNAKNSVYLQMNSLKPEDTAVYYCAAGYVSYWYYRYDYWGQGTQVTVSS", "polyreactivity (PSR sort gate)": "high polyreactivity"},
      {"sequence": "QVQLVESGGGLVQSGGSLRLSCAASGSTFASNAMGWYRQAPGTEMELVAAISRSADSTYYADSVKGRFTISRDNAKNTVYLQMNSLKPEDTAVYYCAARHSRYRNPKYYYWGQGTQVTVSS", "polyreactivity (PSR sort gate)": "high polyreactivity"},
      {"sequence": "QVQLVESGGGLVQSGGSLRLSCAASGSTFGFYAMGGYRQAPGKERELVAAISRGGSTNYADSVKGRFTISRDNAKNTVSCQMNSLKPEDTAVYYCAKAYHATSYYWGQGTQVTVSS", "polyreactivity (PSR sort gate)": "low polyreactivity"},
      {"sequence": "QVQLVESGGGLVQSGGSLRLSCAASGSTFTLYAMGWYRQAPGKERELVAAIRASVGRTYNADSVKGRFTISRDNAKNTVYLQMNSLKPEDTAVYYCNAYGRYGKFRVEYDYWGQGTQVTVSS", "polyreactivity (PSR sort gate)": "low polyreactivity"},
      {"sequence": "QVQLVESGGGLVQSGGSLRLSCAASGSTIPSYALGWYRHAPGKERELVASITYSDGTTSYADSVKGRFTISRDNAKNTVYLQMNSLKPEDTAVYYCNAVYYREGMDYWGQGTQVTVSS", "polyreactivity (PSR sort gate)": "low polyreactivity"},
      {"sequence": "QVQLVESGGGLVQSGGSLRLSCDASGITFKYAMGCYSQAPWKESELVAAISWSGGRTYYADSVKGRFTISRDNAKNTVYLQMNSLKPEDTAVYYCNAYRRYNDEDYWGQGTQVTVSS", "polyreactivity (PSR sort gate)": "high polyreactivity"},
      {"sequence": "QVQLVESGGGLVQTGGSLRLICAASGRTFAVNDMGWYRQARGKERELVAAITWRGDSTYYADSVKGRFTISRDNAKNTVYLQMISLKPEDTAVYYCNAYYDGDWRYTSLETGEHWGQGTQVTVSS", "polyreactivity (PSR sort gate)": "low polyreactivity"},
      {"sequence": "QVQLVESGGGLVQTGGSLRLSCAASGIIFYYYAMGWYRQAPGKERELVAAISWSGDGTYYADSVKGRFTISRDNAKNTVYLQMNSLKPEDTAVYYCAALNDGFTAYDYLDEYTDYGYWGQGTQVTVSS", "polyreactivity (PSR sort gate)": "low polyreactivity"},
      {"sequence": "QVQLVESGGGLVQVGGSLRLSCAASGITLSYYAMGWYRQAPRKERELVASITVSRTSTYYADSVKGRFTISRDNAKNTVYLQMNSLKPEDTEVYYCNADGDHPYRRNDYWGQGTQVTVSS", "polyreactivity (PSR sort gate)": "low polyreactivity"},
      {"sequence": "QVQLVESGGGLVRAGGSLRLSCAASGSTFTNNAMGWYRQAPGKERELVAAITWIGGNTYYADTVKGRFTISRDNAKNTVYLQMNSLKPEDTAVYYCAADRRSRYHDVYGWLYYYWGQGTQVTVSS", "polyreactivity (PSR sort gate)": "low polyreactivity"},
      {"sequence": "QVQLVESGGGLYQAGGSLRLNCAASGYIFQTYAMVWYRQAPGKEREFVAAITSGAGRTSYADSVKGRFTISRDNAKNTVYLELNSLIPEVTAVYYCNARGRKRSYHRKSSDPYGYWGQGNQVTVSS", "polyreactivity (PSR sort gate)": "high polyreactivity"},
      {"sequence": "QVQLVESGGGLYQAGGSLRLSCAASGRIFRYYAMGWYRQAPGKERELVAAINWSGGSTYYADSVKGRFTISRDNAKNTVYLQMNSLKPEDTAVYYCNTRWYVGDDWGQGTQVTVSS", "polyreactivity (PSR sort gate)": "high polyreactivity"},
      {"sequence": "QVQLVESGGGLYQAGGSLRLTCAASGNIFYINTMGWYRQAPGKEMELVAAIEASDGSTYYADSVKGRFTISRDKAKNTVYLLMNSLKPEVTAVNYCATRRGYDSVYYFYTLWYYYWGQGTQVTVSS", "polyreactivity (PSR sort gate)": "low polyreactivity"},
      {"sequence": "QVQLVESGGGRVQAGGSLRLRCAASGRTFRYYAMVWYRQAPGKERELVAAISRTGGSTYYADSVKGRFTISRDNAKNNVYLQMNSLKPEDTAVYYCAARYAEYGSWGQGTQVTVSS", "polyreactivity (PSR sort gate)": "high polyreactivity"},
      {"sequence": "QVQLVESGGGSLRLSCAASALTFGGYTMGWYRQAPGKERELVAAISSSDSTNYADSVKGRFTISRDNAKNTVYLQMNSLKPEDTAVYYCAADSGQWSRYSSFGDEGDSWGQGTEVTVSS", "polyreactivity (PSR sort gate)": "low polyreactivity"},
      {"sequence": "QVQLVESGGGSLRLSCAASGLTFGGYTMGWSRQAPGKERELFAAISSSDSTNYADSVKGRFTISRDNAKNTVYLQMNSLKPEDTAVYYCAADSGQWCRFSSFGDEGDSWGQGTQVTVSS", "polyreactivity (PSR sort gate)": "low polyreactivity"},
      {"sequence": "QVQLVESGGGSLRLSCAASGLTFGGYTMGWYRQAPGKERELVAAISSSDSTNYADSVKGRFTISRDNAKNTVYLQMNSLKPEDTAVYYCAADSGQWSRYSSFGDEGDSWGQGTQVTVSS", "polyreactivity (PSR sort gate)": "low polyreactivity"},
      {"sequence": "QVQLVESGGGSVQAGGSLRLSCAASGFIFDGYTMGWYRQAPGKERELVAAISRSGGRTYYADSVKGRFTISRDNAKHTVYLQLNSLKPEDTAVYYCAVRYRQYSQTVASDYGYWGQGTQVTVSS", "polyreactivity (PSR sort gate)": "high polyreactivity"},
      {"sequence": "QVQLVESGGGSVQAGGSLRLSCAASGSIFYPYTMGWSRQAPGKERELVAVITGSGGRTYYADSVKGRFTISRDNAKNTVYLQMNSLKPEDTAVYYCNASPFTVRYYKYEYWGQGTQVTVSS", "polyreactivity (PSR sort gate)": "low polyreactivity"},
      {"sequence": "QVQLVESGGGVGQAGGSLRLSCAASGSTFDRYTMGWYRQAPGKERELVAAISISGGSTYYADSVKGRFTISRDNAKNTVYLQMNSLKPEVTEVYYCAARLDTVTDYYYWGQGTQVTVSS", "polyreactivity (PSR sort gate)": "low polyreactivity"},
      {"sequence": "QVQLVESGGGVVQAGGSLRISCAASGSTFAANAMGWYRQAPGKERELVAAISTSGGRSYYADSVKGRFTISRDNAKNTLYLQMNSLKPEDSAGYYCAAYSRTSDRDFDYWGQGTQVTVSS", "polyreactivity (PSR sort gate)": "high polyreactivity"},
      {"sequence": "QVQLVESGGGVVQAGGSLRLSCAASARTFYRNAMGWYRQAPGKERELVAAITGSGGSTYYADSVKGRFTISRDNAKNTVYLQMNSLKPEDTAVSYCAAGTRIYNSWIRFDYWGQGTQVTVSS", "polyreactivity (PSR sort gate)": "high polyreactivity"}
    ]}
  ]
}
